Biological target: maltose binding protein (MBP)-tagged ubiquitin
Experiment: ELISA

binding in ELISA relative to S4WIYLD (set to 1) (relative to S4WIYLD = 1)	reduction of binding relative to wild-type S4WIYLD [%]	Substance
0.65		GST-tagged SUVR1 WIYLD domain (domain or fragment)
1.23		GST-tagged SUVR2 WIYLD domain (domain or fragment)
	37	GST-tagged SUVR4 WIYLD domain A32E (domain or fragment)

— article PMC4254770
